# Laboratory results as given in patent US20110287023A1 (AstraZeneca / MedImmune, published 2011).
# T1: HMG1 purified from calf (bovine) thymus (bovine, UniProt P10103 2-215)
# T1 construct: also called Calf thymus HMGB1; thymus HMG1
# T1 sequence (looked up): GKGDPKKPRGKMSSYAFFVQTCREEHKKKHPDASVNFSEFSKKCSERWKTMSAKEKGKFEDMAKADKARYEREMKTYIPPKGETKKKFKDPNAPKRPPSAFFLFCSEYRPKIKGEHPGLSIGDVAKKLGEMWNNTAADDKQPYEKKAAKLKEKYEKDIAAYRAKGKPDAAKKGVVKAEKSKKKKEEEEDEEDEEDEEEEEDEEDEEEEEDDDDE
# T2: HMG2 coated on ELISA plates (Bos taurus (Bovine), UniProt P40673 2-209)
# T2 construct: also called HMGB2; HMBG2
# T2 sequence: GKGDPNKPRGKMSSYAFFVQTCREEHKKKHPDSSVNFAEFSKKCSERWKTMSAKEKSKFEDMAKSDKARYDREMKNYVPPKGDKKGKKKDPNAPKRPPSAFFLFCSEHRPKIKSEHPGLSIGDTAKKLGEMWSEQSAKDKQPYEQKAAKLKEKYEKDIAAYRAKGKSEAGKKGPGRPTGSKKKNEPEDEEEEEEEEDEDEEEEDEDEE
# T3: HMG1 B Box peptide amino acids 91-169
# T3 construct: also called HMG1 peptide 91-169
# T3 peptide: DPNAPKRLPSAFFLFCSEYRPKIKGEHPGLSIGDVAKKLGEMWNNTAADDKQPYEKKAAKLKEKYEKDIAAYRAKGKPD
# T4: HMG1 B Box peptide amino acids 150-183
# T4 peptide: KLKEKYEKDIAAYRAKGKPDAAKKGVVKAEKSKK
# B1: human anti-HMG1 antibody G9 (antibody, IgG1, V domains shown)
# VH: EVQLLESGGGLVQPGGSLRLSCAASGFTFSSYDMFWVRQAPGKGLEWVSRISPSGGYTYYADSVKGRFTISRDNSKNTLYLQMNSLRAEDTAVYYCARLRYFDSRGYAFDIWGQGTMVTVSS
# VL: DIQMTQSPGTLSLSPGERATLSCRASQSVRSSYLAWYQQKPGQAPRLLIYGASTRATGIPDRFSGSGSGTDFTLTISRLEPEDFAVYYCQQYGTSRWTFGQGTKVEIK
# notes: full length IgG1 made from a human Fab phage clone
# B2: human anti-HMG1 antibody G12 (antibody, IgG1, V domains shown)
# VH: EVQLLESGGGLVQPGGSLRLSCAASGFTFSYYMMTWVRQAPGKGLEWVSSISPSGGYTIYADSAKGRFTISRDNSKNTLYLQMNSLRAEDTAVYYCARALSTGSFWDYWGQGTLVTVSS
# VL: DIQMTQSPGTLSLSPGERATLSCRASESLTSTYVAWYQHKPGQAPRLLIHGGSTRATGIPVRFSGSGSGTDFTLTIATLEPEDFAVYYCQQYGSSPYTFGQGTKLEIK
# notes: as for B1
# B3: human anti-HMG1 antibody G20 (antibody, IgG1, V domains shown)
# VH: EVQLLESGGGLVQPGGSLRLSCAASGFTFSWYDMFWVRQAPGKGLEWVSWISPSGGYTKYADSVKGRFTISRDNSKNTLYLQMNSLRAEDTAMYYCARSGLDYYDSSGYLDAFDIWGQGTMVTVSS
# VL: DIQMTQSPSSVSASVGDRVTITCRASQDVSIWLAWYQQKPGKAPKLLIFGASRLQSGVPSRFSGSRSGADFTLTIDSVQPEDFASYYCQQADSFPLTFGGGTKVEIK
# notes: as for B1
# B4: human anti-HMG1 antibody G34 (antibody, IgG1, V domains shown)
# VH: EVQLLESGGGLVQPGGSLRLSCAASGFTFSHYMMGWVRQAPGKGLEWVSRISPSGGGTVYADSVKGRFTISRDNSKNTLYLQMNSLRAEDTAVYYCARGGNWNYISYYYYYLDVWGKGTTVTVSS
# VL: DIQMTQSPSSLSASVGDRVAITCRASQSIDTYLNWYQQKPGKAPKLLIYAASKLEDGVPSRFSGSGTGTDFTLTIRSLQPEDFASYFCQQSYSSPGITFGPGTKVEIK
# notes: as for B1
# B5: human anti-HMG1 antibody G35 (antibody, IgG1, V domains shown)
# VH: EVQLLESGGGLVQPGGSLRLSCAASGFTFSWYKMVWVRQAPGKGLEWVSSIVPSGGITIYADSVKGRFTISRDNSKNTLYLQMNSLRAEDTAVYYCARVQQWLGRPYFDYWGQGTLVTVSS
# VL: DIQMTQSPLSLPVTPGEPASISCRSSQSLLHGNGYNYLDWYLQRPGQSPQLLIYSGSNRASGVPDRFSGSGSGTDFTLKISRVEAEDVGVYYCMQSLQSRTFGQGTKVEIK
# notes: as for B1
# B6: human anti-HMG1 antibody S10 (antibody, IgG1, V domains shown)
# VH: EVQLLESGGGLVQPGGSLRLSCAASGFTFSWYDMWWVRQAPGKGLEWVSWIVPSGGITAYADSVKGRFTISRDNSKNTLYLQMNSLRAEDTATYYCARGNYGPSPFDYWGQGTLVTVSS
# VL: DIQMTQSPGTLSLSPGERATLSCRATQSVRKNFLAWYQQKPGQAPRLLIYDASSRATGIPDRFSGSGSGTDFTLTISRLEPEDFAVYYCQQYGNSPIIFGQGTRLEIK
# notes: as for B1
# B7: human anti-HMG1 antibody S14 (antibody, IgG1, V domains shown)
# VH: EVQLLESGGGLVQPGGSLRLSCAASGFTFSWYETGWVRQAPGKGLEWVSGISPSGGYTQYADSVKGRFTISRDNSKNTLYLQMNSLRAEDTAVYYCARSGVGATKIFDYWGQGTLVTVSS
# VL: DIQMTQSPSSLSASVGDRVTIICRANERINTYLNWYQQKPGKAPKLLISGTSSLESGVPSRFSGSGSGTEFTLSISSLQPEDFASYYCQQSYSSPYTFGQGTNLEIR
# notes: as for B1
# Target: T1, HMG1 purified from calf (bovine) thymus
# Test: direct ELISA, calf thymus HMGB1 coated at 5 ug/mL, antibody at 10 ug/mL, anti-human kappa/lambda-HRP, OD 490
# Protocol: (§1) Binding to HMG1 vs. HMG2: Ultra high-binding ELISA plates (ThermoLab systems, #3855) were coated with either 5 ug/mL of Calf thymus HMGB1 or HMBG2 diluted in 10 mM Phosphate buffered saline (PBS), pH 7.2 and incubate overnight at 4 degrees. The plates were washed twice with Ca and Mg free PBS and 100 microliters of anti-HMGB1 antibody diluted in 10 mM PBS, pH 7.2+1% bovine serum albumin (BSA) to a final concentration of 10 ug/mL was added to each well and the plates were incubated 1 hour at room temperature. The wells were washed three times with 100 μl of PBS, pH 7.2. HRP labeled goat-anti-human IgG Kappa-chain (KPL, #14-10-10) and goat-anti-human IgG Lambda-chain (KPL, #14-10-11) were diluted in 10 mM PBS+1% BSA 1:1000 and 100 μl were added to each well and incubated for 1 hour at room temperature. The wells were then washed three times with 100 μl of PBS, pH 7.2. OPD substrate (Pierce chemical company, #34006) was prepared following the manufacturers instructions and 100 μl of prepared substrate was added to each well and the plates incubated at room temperature in the dark for 20-30 minutes. The reaction was stopped with the addition of 100 μl of 2M H₂SO₄, and the plates read on a plate reader at a wavelength of 490 nm.
row,Binder,binding result
1,B1,binds
2,B2,binds
3,B3,binds
4,B4,binds
5,B5,binds
6,B6,binds
7,B7,binds

# Target: T5, recombinant HMG1 produced in E. coli as a calmodulin binding protein (CBP) fusion (human)
# T5 sequence (P09429 whole entry, the tested form may be a part): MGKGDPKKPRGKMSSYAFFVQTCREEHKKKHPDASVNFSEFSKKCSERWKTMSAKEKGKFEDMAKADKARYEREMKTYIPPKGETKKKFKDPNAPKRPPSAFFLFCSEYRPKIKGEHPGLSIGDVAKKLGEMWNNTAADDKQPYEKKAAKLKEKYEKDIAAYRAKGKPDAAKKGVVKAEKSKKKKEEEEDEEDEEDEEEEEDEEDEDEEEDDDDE
# Test: cell-based or functional assay
Binder,IC50 IL-1β [µg/mL],IC50 IL-6 [nM],IC50 TNF-α [µg/mL],IC50 IL-12 [µg/mL],IC50 NO [µg/mL]
B1,0.211,0.246,0.248,,
B2,5.91,1.12,0.796,2.79,
B3,0.4,0.652,0.598,,20.4
B4,,0.858,,,
B5,,0.564,,,
B6,2.59,0.324,0.875,1.13,
B7,0.0578,0.191,0.0662,,

# Target: T2, HMG2 coated on ELISA plates
# Test: direct ELISA, HMGB2 coated at 5 ug/mL, OD 490
# Protocol: as §1
row,Binder,binding result
1,B1,no binding (tested: 10 ug/mL (single concentration))
2,B2,no binding (tested: 10 ug/mL (single concentration))
3,B3,no binding (tested: 10 ug/mL (single concentration))
4,B4,no binding (tested: 10 ug/mL (single concentration))
5,B5,no binding (tested: 10 ug/mL (single concentration))
6,B6,no binding (tested: 10 ug/mL (single concentration))
7,B7,no binding (tested: 10 ug/mL (single concentration))

# Target: T5, recombinant HMG1 produced in E. coli as …
# Test: ELISA, coated RAGE-Fc, rHMG1 preincubated with antibody
# Protocol: HMG1 binding to RAGE-Ig by ELISA: 50 μl/well of RAGE-Fc fusion protein at 5 μg/ml in PBS was added to each well of an ELISA plate and incubated overnight at 4° C. The plate was then blocked with 200 μl of 5% milk at 37° C. for 1 hr and washed 3× with PBS/Tween. 50 μl/well of diluted HMGB1 solution. For dose curves, HMGB1 concentrations started at 4 ug/ml in PBS. For antibody blocking the HMGB1 was preincubated in another plate with human anti-HMG1 antibodies or buffer, then transferred to the RAGE-coated plate. The plates were then incubated at room temperature for 2 hours and washed 3×. To detect any HMG1 bound to the immobilized RAGE-Fc a mixture of biotinylated mouse anti-HMG1 mAbs (10D4, 4H11, 3E10 and 5C12) each at 1 ug/ml, total Ab: 4 ug/ml, were added to each well and the plate was incubated for 1 hour at room temperature. The plate was then washed and Strepavidin-HPR was added to each well and incubated 15 min. The plate was then washed 3× and blotted dry. 100 μl of TMB developing agent was added and the plate read at 650 nm. Values were calculated as percent of inhibition with HMG1 alone equal to 0% inhibition. The data in FIG. 9 and summarized in Table 1 represent the average of two separate experiments.
row,Binder,percent inhibition of HMG1 binding to RAGE [%]
1,B6,≥ 35

# Target: T3, HMG1 B Box peptide amino acids 91-169
# Test: ELISA, HMG1 B Box peptide 91-169 coated at 10 ug/ml, antibody titrated, OD 450
# Protocol: (§2) The plate was then blocked with 4% milk powder dissolved in PBS at 37° C. for 1 hour. The blocking solution was removed and replaced with human anti-HMG1 antibodies at various concentrations (see FIGS. 5A-B). […] HRP activity was detected with Sureblue HRP substrate (KPL). Plates were read at 450 nm using a Kinetic Microplate Reader (Molecular Devices). […] After washing and blocking with 1% BSA in PBS, the biotinylated peptides were individually added into the avidin coated wells and incubated for 30 min at room temperature. The serial diluted antibody G4, S16 and S6 at the initial concentration at 10 μg/ml were then transferred into the wells followed by adding mouse anti human IgG-HRP conjugate (Pierce). Detection was accomplished by adding 50 μl of tetramethylbenzidine (TMB) substrate (KPL) and the absorbance was read at 450 nm.
row,Binder,binding result
1,B1,no binding (tested: 10 ug/ml (log 1.0))
2,B2,no binding (tested: 10 ug/ml (log 1.0))
3,B3,no binding (tested: 10 ug/ml (log 1.0))
4,B4,no binding (tested: 10 ug/ml (log 1.0))
5,B6,no binding (tested: 10 ug/ml (log 1.0))
6,B7,no binding (tested: 10 ug/ml (log 1.0))

# Target: T4, HMG1 B Box peptide amino acids 150-183
# Test: ELISA, HMG1 B Box peptide 150-183 coated at 10 ug/ml, antibody titrated, OD 450
# Protocol: as §2
row,Binder,binding result
1,B1,no binding (tested: 10 ug/ml (log 1.0))
2,B2,no binding (tested: 10 ug/ml (log 1.0))
3,B3,no binding (tested: 10 ug/ml (log 1.0))
4,B4,no binding (tested: 10 ug/ml (log 1.0))
5,B5,no binding (tested: 10 ug/ml (log 1.0))
6,B6,no binding (tested: 10 ug/ml (log 1.0))
7,B7,no binding (tested: 10 ug/ml (log 1.0))

# Target: T5, recombinant HMG1 produced in E. coli as …
# Test: BIAcore 3000, mAb amine-coupled to CM5, HMG1 injected, steady-state model
# Protocol: HMG1 Binding Affinity via BIAcore Analysis: All experiments were performed on a BIAcore 3000 instrument (BIAcore, Inc., Piscataway, N.J.). Briefly, each mAb was immobilized to a CM5 sensor chip using a standard amine coupling chemistry. Separately a reference (control) flow cell was also prepared. Two-fold, serial dilutions of HMG1 in instrument buffer were sequentially injected at a slow flow rate over the individual mAb and reference flow-cell surfaces. Following the binding and dissociation of HMG1, the mAbs surfaces were regenerated with a brief pulse of 1M NaCl-50 mM NaOH. At the end of each experiment, the binding curves were evaluated using a steady-state model available through the BIAevaluation software supplied by BIAcore, Inc. (Piscataway, N.J.).
row,Binder,Kd [nM]
1,B1,125
2,B2,73
3,B3,114
4,B4,67
5,B5,242
6,B6,54
7,B7,205
